From article PMC3707680, “Structural and Pharmacological Characterization of Novel Potent and Selective Monoclonal Antibody Antagonists of Glucose-dependent Insulinotropic Polypeptide Receptor” (The Journal of Biological Chemistry, 2013)
Where two headings read alike, the source gives them in different places.

Assays:
GIP(1–42) peptide = GIP(1–42) peptide (UniProt P09681)
[1] = biological target: T1, human GIP receptor on HEK293 cells (human) (UniProt P48546)
T1 sequence: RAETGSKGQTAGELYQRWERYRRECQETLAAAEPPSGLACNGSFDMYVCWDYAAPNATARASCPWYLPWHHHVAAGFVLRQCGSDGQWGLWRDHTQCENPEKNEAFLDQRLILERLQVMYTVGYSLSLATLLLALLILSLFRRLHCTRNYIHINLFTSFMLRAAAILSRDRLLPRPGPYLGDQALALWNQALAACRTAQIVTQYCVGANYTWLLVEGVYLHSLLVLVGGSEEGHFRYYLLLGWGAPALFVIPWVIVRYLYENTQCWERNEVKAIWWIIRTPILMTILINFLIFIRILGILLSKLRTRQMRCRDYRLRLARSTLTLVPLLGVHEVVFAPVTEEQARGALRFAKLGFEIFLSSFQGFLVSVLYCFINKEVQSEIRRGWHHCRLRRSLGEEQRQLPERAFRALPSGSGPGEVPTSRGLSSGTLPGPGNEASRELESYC

[2] = biological target: T1, human GIP receptor on HEK293 cells (human); assay: fluorescent microvolume assay technology (FMAT) on cells; receptor ligand competition with unlabelled peptides against AlexaFluor 647-labeled GIP on human GIPr-overexpressing cells; data not shown
[3] = biological target: T2, human GIP receptor on HEK293 cells (human, UniProt P48546)
T2 construct: glucose-dependent insulinotropic polypeptide receptor, human, full-length receptor gene; also called HEK293 human GIPr; hGIPr; source: HEK293, stably transfected (pIRESneo3), on cells

biotinylated GIPr ECD = biological target: T3, biotinylated GIPr ECD (Homo sapiens, biotin (EZ-link Sulfo-NHS-LC-Biotin), positions not stated); assay: BLI; Octet RED (reflectometric interference spectroscopy); biotinylated GIPr ECD at 1.2 μg/ml on Super Streptavidin biosensors; scFv at ~0.5 μM (12.5 μg/ml), single concentration; PBS with kinetics buffer; 1:1 Langmuir; settings: both partners purified
T3 construct: glucose-dependent insulinotropic polypeptide receptor, human, extracellular domain; same construct as m4, biotinylated; held on Super Streptavidin biosensors; also called soluble biotinylated GIPr ECD
T3 chain: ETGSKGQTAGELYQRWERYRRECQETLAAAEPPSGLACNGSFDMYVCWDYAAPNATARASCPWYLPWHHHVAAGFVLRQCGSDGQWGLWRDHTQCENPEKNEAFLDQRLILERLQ

[4] = biological target: T4, GIPr ECD (extracellular domain of the human GIP receptor) (Homo sapiens); assay: SPR; Biacore 2000; Gipg013 IgG amine-coupled to a CM5 chip at low density (~139 resonance units), GIPr ECD in solution; 25 °C, 30 μl/min, HBS-N (10 mM HEPES, pH 7.4, 150 mM sodium chloride); 1:1 Langmuir model; settings: both partners purified
T4 construct: glucose-dependent insulinotropic polypeptide receptor, human, extracellular domain; also called GIPr extracellular domain
T4 chain: T3 chain

[5] = biological target: T5, human GLP-1 receptor on overexpressing cells (Homo sapiens, UniProt P43220); assay: fluorescent microvolume assay technology (FMAT) on cells; 0.25 μg/ml IgG with AlexaFluor 647-labeled goat anti-human IgG on stably transfected cells (5000 cells a well), Hanks' balanced salt solution with 0.1% BSA, room temperature, 3 h; settings: one partner purified
T5 construct: glucagon-like peptide 1 receptor, human; also called hGLP-1r; source: stably transfected cell line, on cells
T5 sequence (P43220 24-463): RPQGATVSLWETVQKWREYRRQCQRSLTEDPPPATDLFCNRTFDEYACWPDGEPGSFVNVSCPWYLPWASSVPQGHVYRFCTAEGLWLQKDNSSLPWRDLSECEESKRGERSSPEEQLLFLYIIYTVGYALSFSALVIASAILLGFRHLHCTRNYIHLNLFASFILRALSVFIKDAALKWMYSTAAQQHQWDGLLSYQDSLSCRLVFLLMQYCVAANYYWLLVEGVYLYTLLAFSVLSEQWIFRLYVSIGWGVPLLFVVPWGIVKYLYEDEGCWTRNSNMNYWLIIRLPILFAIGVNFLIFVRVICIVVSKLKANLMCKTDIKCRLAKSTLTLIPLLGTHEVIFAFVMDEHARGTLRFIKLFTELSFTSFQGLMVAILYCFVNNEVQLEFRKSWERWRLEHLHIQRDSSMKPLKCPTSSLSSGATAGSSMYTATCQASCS

[6] = biological target: T6, mouse GLP-1 receptor on overexpressing cells (Mus musculus, UniProt O35659); assay: as above; settings: one partner purified
T6 construct: glucagon-like peptide 1 receptor, mouse; also called mGLP-1r; source: stably transfected cell line, on cells
T6 sequence (O35659 22-463): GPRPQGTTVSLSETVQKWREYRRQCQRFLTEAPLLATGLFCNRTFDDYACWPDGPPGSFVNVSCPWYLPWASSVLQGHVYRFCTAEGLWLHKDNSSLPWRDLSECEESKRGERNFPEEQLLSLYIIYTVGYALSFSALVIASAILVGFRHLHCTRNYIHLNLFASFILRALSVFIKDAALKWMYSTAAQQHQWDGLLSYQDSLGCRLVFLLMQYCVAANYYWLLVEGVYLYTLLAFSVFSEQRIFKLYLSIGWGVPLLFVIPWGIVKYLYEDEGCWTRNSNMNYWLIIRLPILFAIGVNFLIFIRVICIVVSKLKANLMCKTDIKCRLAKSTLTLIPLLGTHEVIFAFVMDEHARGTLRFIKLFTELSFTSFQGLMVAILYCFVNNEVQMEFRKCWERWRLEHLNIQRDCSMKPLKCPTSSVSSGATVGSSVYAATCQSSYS

[7] = biological target: T7, rat GLP-1 receptor on overexpressing cells (Rattus norvegicus, UniProt P32301); assay: as above; settings: one partner purified
T7 construct: glucagon-like peptide 1 receptor, rat; also called rGLP-1r; source: stably transfected cell line, on cells
T7 sequence (P32301 22-463): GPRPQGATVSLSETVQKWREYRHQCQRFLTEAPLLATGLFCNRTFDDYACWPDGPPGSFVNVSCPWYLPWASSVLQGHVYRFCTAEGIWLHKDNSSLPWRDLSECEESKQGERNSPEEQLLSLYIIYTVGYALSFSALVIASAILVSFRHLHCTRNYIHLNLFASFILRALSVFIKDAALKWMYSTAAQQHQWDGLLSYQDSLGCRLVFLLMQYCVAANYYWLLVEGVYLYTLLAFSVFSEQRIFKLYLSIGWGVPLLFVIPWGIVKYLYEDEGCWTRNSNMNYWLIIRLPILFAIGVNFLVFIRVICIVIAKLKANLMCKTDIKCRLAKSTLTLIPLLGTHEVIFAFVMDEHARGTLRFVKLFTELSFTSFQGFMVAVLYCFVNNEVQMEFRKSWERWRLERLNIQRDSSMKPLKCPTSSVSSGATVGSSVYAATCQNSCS

[8] = biological target: T8, dog GLP-1 receptor on overexpressing cells (Canis lupus familiaris, UniProt A0A8I3NUR9); assay: as above; settings: one partner purified
T8 construct: glucagon-like peptide 1 receptor, dog; also called dGLP-1r; source: stably transfected cell line, on cells

[9] = biological target: T9, human glucagon receptor on overexpressing cells (Homo sapiens, UniProt P47871); assay: as above; settings: one partner purified
T9 construct: glucagon receptor, human; also called GCGr; hGCGr; source: stably transfected cell line, on cells
T9 sequence (P47871 26-477): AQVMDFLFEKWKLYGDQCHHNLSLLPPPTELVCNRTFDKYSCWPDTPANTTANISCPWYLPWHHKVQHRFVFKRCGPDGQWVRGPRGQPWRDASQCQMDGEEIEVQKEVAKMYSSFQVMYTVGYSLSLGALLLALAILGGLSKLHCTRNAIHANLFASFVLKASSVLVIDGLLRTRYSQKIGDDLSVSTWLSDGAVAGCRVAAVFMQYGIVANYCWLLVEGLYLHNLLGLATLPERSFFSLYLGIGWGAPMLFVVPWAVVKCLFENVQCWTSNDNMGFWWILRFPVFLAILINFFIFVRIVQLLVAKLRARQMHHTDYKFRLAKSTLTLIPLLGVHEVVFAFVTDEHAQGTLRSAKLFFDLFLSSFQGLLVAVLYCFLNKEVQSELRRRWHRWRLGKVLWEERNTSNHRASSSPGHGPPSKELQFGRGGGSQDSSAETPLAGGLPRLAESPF

[10] = biological target: T10, mouse glucagon receptor on overexpressing cells (Mus musculus, UniProt Q61606); assay: as above; settings: one partner purified
T10 construct: glucagon receptor, mouse; also called GCGr; mGCGr; source: stably transfected cell line, on cells
T10 sequence (Q61606 27-485): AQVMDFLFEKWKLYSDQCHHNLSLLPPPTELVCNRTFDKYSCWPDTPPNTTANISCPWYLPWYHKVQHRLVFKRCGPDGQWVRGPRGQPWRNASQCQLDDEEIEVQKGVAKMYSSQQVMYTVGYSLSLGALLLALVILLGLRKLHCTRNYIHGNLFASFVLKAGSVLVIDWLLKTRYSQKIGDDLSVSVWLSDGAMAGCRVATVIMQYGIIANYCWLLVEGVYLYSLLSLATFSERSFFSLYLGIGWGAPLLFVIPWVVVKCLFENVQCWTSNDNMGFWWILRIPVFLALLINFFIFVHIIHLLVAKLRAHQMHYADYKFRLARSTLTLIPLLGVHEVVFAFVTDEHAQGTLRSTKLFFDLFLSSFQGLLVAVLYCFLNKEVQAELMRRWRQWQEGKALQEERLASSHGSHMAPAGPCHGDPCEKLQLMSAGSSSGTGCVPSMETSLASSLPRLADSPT

[11] = biological target: T11, rat glucagon receptor on overexpressing cells (Rattus norvegicus, UniProt P30082); assay: as above; settings: one partner purified
T11 construct: glucagon receptor, rat; also called GCGr; rGCGr; source: stably transfected cell line, on cells
T11 sequence (P30082 27-485): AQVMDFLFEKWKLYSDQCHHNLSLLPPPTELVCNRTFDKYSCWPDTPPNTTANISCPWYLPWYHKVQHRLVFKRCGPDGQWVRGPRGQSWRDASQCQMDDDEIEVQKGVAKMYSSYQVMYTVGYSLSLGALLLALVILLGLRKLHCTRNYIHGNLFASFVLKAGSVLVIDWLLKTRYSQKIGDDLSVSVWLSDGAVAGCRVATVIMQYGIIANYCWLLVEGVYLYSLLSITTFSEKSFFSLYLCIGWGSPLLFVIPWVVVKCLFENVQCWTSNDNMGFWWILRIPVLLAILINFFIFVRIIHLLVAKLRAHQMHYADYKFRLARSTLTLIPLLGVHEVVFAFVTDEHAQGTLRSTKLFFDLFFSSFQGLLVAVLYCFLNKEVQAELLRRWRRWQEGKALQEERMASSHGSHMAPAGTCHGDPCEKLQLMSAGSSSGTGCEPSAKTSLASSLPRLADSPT

[12] = biological target: T12, mouse GIP receptor on HEK293 cells (Mus musculus, UniProt Q0P543); assay: as above; settings: one partner purified
T12 construct: glucose-dependent insulinotropic polypeptide receptor, mouse, full-length receptor gene; also called mGIPr; source: HEK293, stably transfected (pIRESneo3), on cells
T12 sequence (Q0P543 19-460): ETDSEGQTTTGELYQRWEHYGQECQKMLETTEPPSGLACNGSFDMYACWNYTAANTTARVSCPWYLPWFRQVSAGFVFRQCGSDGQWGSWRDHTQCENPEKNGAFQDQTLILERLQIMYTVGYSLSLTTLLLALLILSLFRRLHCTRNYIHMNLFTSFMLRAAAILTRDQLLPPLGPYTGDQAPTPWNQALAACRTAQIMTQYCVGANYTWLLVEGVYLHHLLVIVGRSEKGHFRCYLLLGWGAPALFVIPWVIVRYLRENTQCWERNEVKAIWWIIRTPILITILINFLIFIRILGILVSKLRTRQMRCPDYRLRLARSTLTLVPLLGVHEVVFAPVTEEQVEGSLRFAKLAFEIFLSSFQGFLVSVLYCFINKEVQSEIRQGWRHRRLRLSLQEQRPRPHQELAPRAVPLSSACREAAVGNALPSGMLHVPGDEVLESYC

[13] = biological target: T2, human GIP receptor on HEK293 cells; assay: fluorescent microvolume assay technology (FMAT) on cells; receptor ligand competition: dilution series of antibody against 0.5 nM AlexaFluor 647-labeled GIP on HEK293 human GIPr cells, Hanks' balanced salt solution with 0.1% BSA, room temperature, 1–2 h; settings: one partner purified
[14] = biological target: T2, human GIP receptor on HEK293 cells; remark: listed apart in the source
[15] = biological target: T4, GIPr ECD (extracellular domain of the …); assay: SPR; BIAcore, Gipg013 Fab and GIPr ECD; who was immobilised is not told for the Fab; settings: both partners purified

biotinylated GIPr ECD (domain or fragment)
cAMP assay on HEK293 GIPr cells: soluble GIPr ECD competes with the cell surface GIPr for GIP (GIP(1–42) peptide): 7 µM

GIP(7–30) (peptide)
cAMP HTRF assay, antagonism of GIP-induced cAMP production in HEK293 human GIPr cells [1]: 230 nM | IC50 [2]: 83 nM

Pro3GIP (peptide)
cAMP HTRF assay, agonism in HEK293 human GIPr cells (partial, to 83% of the response with GIP) [1]: 180 nM

B1: Gipg013 scFv (scFv, V domains shown)
VH: QVQLQQSGAEVKKPGSSVKVSCKASGGTFSSYAISWVRQAPGQGLEWMGGIIPTFGTANYAQKFQGRVTITADESTSTAYMELSSLRSEDTAVYYCAQGPIVGAPTDYWGKGTLVTVSS
VL: SYVLTQPPSASGTPGQRVAISCSGSNSNIGSNTVHWYQQLPGAAPKLLIYSNNQRPSGVPDRFSGSNSGTSASLAISRLQSEDEADYYCAAWDDSLNGVVFGGGTKVTVL
notes: VH as in the heavy chain of m1; VL as in the light chain of m1; phage vector pCantab6 is named for the libraries
cAMP HTRF assay, antagonism of GIP-induced cAMP production in HEK293 human GIPr cells (blocks GIP on GIPr) [3]: 233 nM | Kd (biotinylated GIPr ECD): 25 nM | koff (biotinylated GIPr ECD): 0.00188 s⁻¹ | kon (biotinylated GIPr ECD): 74500 M⁻¹ s⁻¹

B2: Gipg013 IgG (antibody, V domains shown)
VH: B1 VH
VL: B1 VL
notes: VH of Gipg013; also in PDB 4HJ0 (heavy chain of the Fab, chains P and C); heavy chain constant region of human IgG1 (full-length antibody in the IgG1 format); the light chain is in PDB 4HJ0 (chains Q and D); IgG1; converted from the scFv clone; also called GIP013; Gipr013; source: mammalian cells (variable genes cloned into the pEU vectors), purified; copies: 2 + 2
Kd [4]: 23 nM | koff [4]: 0.00369 s⁻¹ | kon [4]: 159000 M⁻¹ s⁻¹ | binding result [5]: no binding (tested: 0.25 μg/ml) | binding result [6]: no binding (tested: 0.25 μg/ml) | binding result [7]: no binding (tested: 0.25 μg/ml) | binding result [8]: no binding (tested: 0.25 μg/ml) | binding result [9]: no binding (tested: 0.25 μg/ml) | binding result [10]: no binding (tested: 0.25 μg/ml) | binding result [11]: no binding (tested: 0.25 μg/ml) | binding result [12]: binds | IC50 [13]: 17.2 ± 6 nM

B3: Gipg013 Fab (Fab, V domains shown)
VH: B1 VH
VL: B1 VL
notes: heavy chain of the Fab, PDB 4HJ0 chains P and C (final model Gln3-Val217, 206 residues); as the heavy chain of m1 up to the papain cut; light chain of the Fab, PDB 4HJ0 chains Q and D (final model Ser1-Glu213, 211 residues); as the light chain of m1; also called Gip013 Fab; source: papain digestion of the antibody
cAMP HTRF assay, antagonism of GIP-induced cAMP production in HEK293 human GIPr cells (blocks GIP on GIPr) [14]: 102 nM | Kd [15]: 40 nM
